The source of these data is patent US20240174744A1 (SCIRHOM, published 2024).

B1: antibody 16 (antibody, V domains shown)
VH: QVTLKESGPGILQPSQTLSLTCSFSGFSLSTFALGVGWIRQPSGRGLEWLAHIWWDDDKYYNPALKSRLTISKDTSKNHVFLKIANVDTADTATYYCARITTYYYGMDYWGQGTSVTVSS
VL: DIVLSQSPATLSVTPGDSVSLFCRASQSIGNHLHWYQQESHASPRLLIKYASQSISGIPSRFSGSGSGTDFTLSINSVETEDFGMYFCQQSYNWPLTFGAGTKLELK
notes: Mouse IgG, kappa light chain; also called clone #16; m16
B2: antibody 43 (antibody, V domains shown)
VH: QVALKESGPGILQPSQTLSLTCSFSGFSLSTFGMGVGWIRQSSGKGLEWLANIWWDDDKYYNPALKSRLTISKDASKNQAFLKIANVDTADTATYYCARIGNYGSNYWYFDVWGTGTTVTVSS
VL: QIVLTQSPAIMSASPGERVTMTCSANSRISYMYWYQQKPGSSPRLLIYDTSNLASGVPVRFSGSGSGTSYSLTISRMEAEDAATYNCQQWSSYPLTFGAGTKLELK
notes: Mouse IgG, kappa light chain; also called clone #43
B3: antibody 42 (antibody, V domains shown)
VH: B2 VH with A3T, F24L, M34R, S42P, N52H, D58E, A75T, A80V, K83R, G101Q
VL: B2 VL with Q1L, R18K, S24G, N26T, Y33F, L45V, M77V, A82V, N86Y, S91N
notes: Mouse IgG, kappa light chain; also called clone #42; m42
B4: antibody 44 (antibody, V domains shown)
VH: B2 VH with A3T, S42P, G44E, N52H, A75T, A80I, A85T, D91E, A98S
VL: QIVLTQSPAVMSASPGEKVTMTCTASSSVYYMYWYQQTPGSSPRLLIYDTSNLASGVPVRFSGSGSGTSYSLTISRMEAEDAATYYCQQWNTYPLTFGAGTKLELK
notes: Mouse IgG, kappa light chain; also called clone #44; m44
B5: antibody 5 (antibody, V domains shown)
VH: B2 VH with A3T, S42P, N52H, D58E, P63S, D74A, A75T, G101S, D111N
VL: QVVLTQSPALMSASPGEKVTMTCSAGSSVSCMYWYQQKPGSSPRVLIYDTSNLASGVPARFTGSGSGTSYSLTISRMEAEDAASYYCQQWNSYPLTFGAGTKLELK
notes: Mouse IgG, kappa light chain; also called clone #5; purified antibody 5
B6: antibody 22 (antibody, V domains shown)
VH: B2 VH with A3T, S42P, N52H, D58E, P63S, D74A, A75T, A80V, G101S, D111N
VL: B5 VL with C31Y, S84T
notes: Mouse IgG, kappa light chain; also called clone #22; m22
B7: antibody 50 (antibody, V domains shown)
VH: QVQLQQSGAELVRPGASVKVSCKASGYAFSNYLIEWVKQRPGQGLEWIGVINPGSGFTKYNEKFKGKATLTADKSSSTAYMQLSSLTSEDSAVYFCARGLYRAMDYWGQGTSVTVSS
VL: DIQMTQSPASQSASLGESVTITCLASQTIGTWLAWYQQKPGKSPQLLIYAAASLADGVPSRFSGGGSGTKFSFKISSLQAEDFVNYYCQQIYSTPYTFGGGTKLEIK
notes: Mouse IgG, kappa light chain; also called clone #50; purified antibody 50
B8: antibody 34 (antibody, V domains shown)
VH: QVTLKESGPGILQPSQTLSLTCSFSGFSLSTFSLGVGWIRQSSGKGLEWLAHIWWDDEKYYNPALKSRLTISKDTSKNQVFLKIANVDAADTATYYCARAYYSKSYYALDYWGQGTSVTVSS
VL: DIQMTQSPSSLSASLGERVSLTCRASQEISGYLSWLQQKPDGTIKRLIYAASTLDSGVPKRFSGSRSGSDYSLAISSLESEDFADYYCLQYANFPFTFGSGTKLEIK
notes: Mouse IgG, kappa light chain; also called clone #34; m34

Changes are numbered by the printed parent chain.

The assay addresses T1, miR2-FL-WT-T7 (mouse iRhom2 full length wild type C-terminally tagged with 3 consecutive copies of the T7 … (mouse, UniProt Q80WQ6 1-827)).
T1 construct: also called mouse iRhom2 variant expressed by MEF-DKO-miR2-FL-WT-T7 cells
T1 sequence: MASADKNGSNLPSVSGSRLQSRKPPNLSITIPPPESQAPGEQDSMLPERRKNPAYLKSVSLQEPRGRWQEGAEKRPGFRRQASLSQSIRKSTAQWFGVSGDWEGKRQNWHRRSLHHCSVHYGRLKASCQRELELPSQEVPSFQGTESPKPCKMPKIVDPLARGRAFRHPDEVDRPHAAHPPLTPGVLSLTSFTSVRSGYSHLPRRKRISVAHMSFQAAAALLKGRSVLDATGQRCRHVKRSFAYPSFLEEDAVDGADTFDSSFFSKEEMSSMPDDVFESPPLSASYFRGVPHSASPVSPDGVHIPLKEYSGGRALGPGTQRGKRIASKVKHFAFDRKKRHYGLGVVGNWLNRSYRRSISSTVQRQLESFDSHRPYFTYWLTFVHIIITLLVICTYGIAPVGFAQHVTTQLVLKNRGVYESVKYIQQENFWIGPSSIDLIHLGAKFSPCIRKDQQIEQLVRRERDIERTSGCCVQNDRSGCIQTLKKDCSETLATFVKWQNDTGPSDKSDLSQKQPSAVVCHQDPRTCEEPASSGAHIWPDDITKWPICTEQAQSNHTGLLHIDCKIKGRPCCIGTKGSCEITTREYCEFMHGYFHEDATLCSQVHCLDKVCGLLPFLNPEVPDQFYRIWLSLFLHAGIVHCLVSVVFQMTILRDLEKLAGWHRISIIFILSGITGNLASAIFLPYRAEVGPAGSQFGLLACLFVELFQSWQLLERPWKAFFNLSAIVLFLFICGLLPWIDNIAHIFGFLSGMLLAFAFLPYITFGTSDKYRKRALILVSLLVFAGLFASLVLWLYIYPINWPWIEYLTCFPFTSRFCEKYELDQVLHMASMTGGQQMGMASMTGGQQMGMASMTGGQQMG
Description: FACS on cells of the row mouse iR2 wild type.
Consider B1, for which the binding result was “no binding (tested: 3 µg/ml)”.
Turning to B2, the binding result is listed as “no binding (tested: 3 µg/ml)”.
For B3, the binding result is recorded as “no binding (tested: 3 µg/ml)”.
Take B4: the binding result is reported as “no binding (tested: 3 µg/ml)”.
Turning to B5, the binding result was “no binding (tested: 3 µg/ml)”.
The value for B6 was “no binding (tested: 3 µg/ml)”; that for B7 was “no binding (tested: 3 µg/ml)”; that for B8 was “no binding (tested: 3 µg/ml)”.
